Measured values: patent publication US6416758B1 (Board of Regents, The University of Texax System, priority 1999, dated 2002)

What was measured:
[1] = target: T1, VEGF alone or VEGF associated with sFlk-1 (VEGF:Flk-1) (Homo sapiens, UniProt P15692); assay: Indirect and capture ELISA, VEGF alone vs VEGF associated with sFlk-1; assay type: binding
T1 sequence (P15692 27-191 isoform P15692-4): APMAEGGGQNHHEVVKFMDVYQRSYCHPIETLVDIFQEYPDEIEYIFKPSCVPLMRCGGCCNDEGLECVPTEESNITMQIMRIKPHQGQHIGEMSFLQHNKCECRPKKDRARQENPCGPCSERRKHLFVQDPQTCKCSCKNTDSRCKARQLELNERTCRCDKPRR
Method: The Flk-1/SEAP protein was produced and purified as described by Tessler et al. (1994). Basically, the extracellular domain of Flk-1(sFlk-1) was produced in Spodoptera frugiperda (Sf9) cells and purified by immunoaffinity techniques utilizing a monoclonal anti-Flk-1 antibody (1A8). sFlk-1 was then biotinylated and bound on avidin-coated plates.
The reactivity was determined as described above for the initial screening.
A capture ELISA was also developed. In the capture ELISA, microtiter plates were coated overnight at 4° C. with 100 ng of the indicated antibody. […] Streptavidin conjugated to peroxidase (Kirkegaard & Perry Laboratories, Inc.), diluted 1:2000, was used as a second layer and developed.

[2] = target: T2, denatured VEGF121 and VEGF165 (Homo sapiens, UniProt P15692); assay: Western blot analysis; assay type: binding; conditions: reducing and non-reducing conditions
T2 sequence (P15692 27-191 isoform P15692-4): T1 sequence (P15692 27-191 isoform P15692-4)
Method: The nitrocellulose membrane was blocked using Sea-Block PP82-41 (East Coast Biologics, Berwick, Me.), and probed with primary antibodies using a mini-blotter apparatus (Immunetics, Cambridge, Mass.). The membranes were developed after incubation with the appropriate peroxidase-conjugated secondary antibody by ECL enhanced chemiluminescence.
Western blot analyses of anti-VEGF antibodies were conducted by separating VEGF165 in the presence of 5% FCS using SDS-PAGE on a 12% gel and analyzing by a standard western blotting protocol using ECL detection. The primary antibodies were incubated with the nitrocellulose membrane using a multi-lane mini-blotter apparatus.

[3] = tested on: VEGF-mediated growth of ABAE cells; assay: Endothelial cell growth assay (MTS); assay type: cell-based, bovine; conditions: Table 5
[4] = tested on: NCI-H358 NSCLC and HT29 colon adenocarcinoma xenografts and normal organs; assay: In vivo localization to human tumor xenografts in mice
Method: Tumors were grown subcutaneously in immunocompromised mice (NCI-H358 NSCLC in nu/nu mice and HT29 colon adenocarcinoma in SCID mice) until the tumnor volume was approximately 1 cm^3. 100 μg of unlabeled antibody for studies using SCID mice, or 100 μg of biotinylated antibody for studies using nude mice, was injected intravenously via a tail vein. Twenty four hours later, the mice were anesthetized, perfused with PBS, and tumnor and organs including heart, lungs, liver, kidneys, intestines and spleen were collected and snap frozen in liquid nitrogen.
The tumor and organs from each mouse were sectioned on a cryostat and stained for antibody immunohistochemically as above, with the exception that sections from the nude mice were developed using peroxidase labeled streptavidin-biotin complex (Dako, Carpinteria, Calif.) and the sections from the SCID mice were developed using two peroxidase-conjugated secondary antibodies, a goat anti-mouse IgG+IgM followed by a rabbit anti-goat IgG.
100 μg of GV39M and 3E7 or isotype-matched control IgG were injected into SCID mice bearing HT29 human colonic adenocarcinomas. Twenty-four hours later, the mice were sacrificed, exsanguinated and the tumors and tissues were removed. Frozen sections of the tumors and tissues were analyzed immunohistochemically to determine the binding and distribution of the antibodies (Table 4).

[5] = tested on: VEGFR2 (KDR/Flk-1; sFlk-1); assay: ELISA, VEGF binding to VEGFR2-coated wells; set-up: species or system mouse
Method: (§1) FIG. 2. […] The plate was then incubated with rabbit anti-VEGF (A-20, Santa Cruz Biotechnology, Inc.) at 1 μg/ml and developed using a peroxidase conjugated goat anti-rabbit antibody. Assays were performed in triplicate. Mean percent binding in the absence of antibody is shown, together with the standard deviation.
(§2) The assay was also performed by coating wells of a microtiter plate with either control or test IgG.

VEGFR1 (Flt-1/Fc) = assay: ELISA, VEGF binding to VEGFR1-coated wells; conditions: Table 5
Method: as §1, §2

NCI-H358 NSCLC = assay: Growth inhibition of newly-implanted NCI-H358 xenografts; assay type: in vivo, mouse; conditions: 100 μg i.p. 2 times per wk from day 1, nu/nu mice
Method: (§3) FIG. 3A and FIG. 3B. […] FIG. 3A: 1×10^7 NCI-H358 NSCLC cells were injected subcutaneously into nu/nu mice on day 0. FIG. 3B: 5×10^6 A673 rhabdomyosarcoma cells were injected subcutaneously into nu/nu mice on day 0. Mice were injected i.p. with the indicated IgG on day 1 and 2 times/week thereafter. […] Tumors were measured 2-3 times per week. Mean and standard error is shown for the duration of the study in FIG. 3A, while data for the last day of the study (day 26) is shown in FIG. 3B.
(§4) Nu/nu mice were injected subcutaneously with either 1×10^7 NCI-H358 NSCLC cells or 5×10^6 A673 rhabdomyosarcoma cells on day 0. […] The tumors were then measured twice per wk for a period of approximately six wk for the NCI-H358 bearing mice and four wk for the A673 bearing mice. Tumor volume was calculated according to the formula: volume=L×W×H, where L=length, W=width, H=height.

A673 rhabdomyosarcoma [6] = assay: Growth inhibition of newly-implanted A673 xenografts; assay type: in vivo, mouse; conditions: 100 μg i.p. 2 times per wk from day 1, nu/nu mice
Method: as §3, §4

NCI-H358 NSCLC tumors = assay: Treatment of established NCI-H358 xenografts; assay type: in vivo, mouse
Method: FIG. 4. […] Mean tumor volume along with the SEM over 116 days is shown.
(§5) FIG. 5A and FIG. 5B. […] Treatments (T) were 100 μg of the IgG given i.p., except for the initial treatment that consisted of 500 μg of the IgG given i.v. Mean tumor volume along with the SEM is shown. At the end of the study (day 116), the mice were sacrificed and the tumors dissected out and weighed. […] The mice were treated every other day as indicated (T). […] Mean tumor volume along with the SE is shown.
(§6) Male nu/nu mice bearing subcutaneous NCI-H358 tumors or HT1080 fibrosarcoma 200-400 mm^3 in size were injected i.p. with test or control antibodies. The NCI-H358 bearing mice were treated with 100 μg of antibodies per injection three times a week during the first week and twice a week during the second and third week. The mice were then switched to 50 μg per injection every five days. The HT1080 bearing mice were treated with 100 μg of the indicated antibody or saline every other day throughout the duration of the study. In both studies, mice were sacrificed when their tumors reached 2500 mm^3 size or earlier if tumors began to ulcerate.
Doses were 50-100 μg every 3-5 days. […] In addition to measuring mean tumor volume (FIG. 4), photographs of the mice from each treatment group were also taken to show the differences in tumor size and appearance at the end of the study.

HT1080 fibrosarcoma = assay: Treatment of established HT1080 xenografts; assay type: in vivo, mouse; conditions: 100 μg i.p. every other day
Method: as §5, §6

A673 rhabdomyosarcoma [7] = assay: Treatment of established A673 tumors; assay type: in vivo, mouse; conditions: mice with established tumors
[8] = tested on: LS174T colon adenocarcinoma; assay: Treatment of established LS174T tumors; assay type: in vivo, mouse; conditions: mice with established tumors
GUS enzymatic activity = assay type: biochemical
Excerpt: The 6-His GUS was pure based upon SDS-PAGE, where it ran as a single band of 75 kDa band. On gel filtration columns, the 6-His GUS runs as a tetramer of about 300 kDa.

[9] = Blood clearance of radioiodinated 2C3-GUS; assay type: in vivo, mouse; conditions: 125I-labelled, intravenous injection into mice
Method: 2C3-GUS was radioiodinated with ^125I to a specific activity of 5×10^6 cpm/μg. After intravenous injection into mice, the radioiodinated 2C3-GUS cleared from the blood with a t½α of about 6 hours and a t 1/2β of about 25 hours.

[10] = tested on: human NCI-H358 NSCLC tumors; assay: In vivo localization of 2C3-GUS; set-up: species or system mouse; conditions: SCID mice bearing s.c. NCI-H358
[11] = 24 hours after i.v. antibody, 2C3 in NCI-H358/nu/nu, 3E7 and GV39M in HT29/SCID mice

2C3: anti-VEGF monoclonal antibody, IgG2a,k, hybridoma ATCC PTA 1595; blocks VEGF binding to VEGFR2 but not VEGFR1 [Clone 2C3]
Predominant Reactivity [1]: VEGF
Reactivity with VEGF on western blots [2]: react
Blocks VEGF-induced proliferation [3]: Yes
Immunohistochemical Reactivity, Heart [4, 11]: −
Immunohistochemical Reactivity, Intestine [4, 11]: −
Immunohistochemical Reactivity, Kidney [4, 11]: −
Immunohistochemical Reactivity, Liver [4, 11]: −
Immunohistochemical Reactivity, Lung [4, 11]: −
Immunohistochemical Reactivity, Spleen [4, 11]: −
Immunohistochemical Reactivity, Tumor [4, 11]: 3+
In vivo tumor localization pattern ([4]; CT connective tissue, BV blood vessels): Moderate to strong
Localization in the HT29 human tumor model ([4]; HT29): localized strongly to the connective tissue
In vivo normal mouse tissue localization ([4]; mouse, in vivo): None detectable
Structure specifically bound after i.v. injection ([4]; mouse, in vivo, iv): tumor stroma
Blocking of VEGF binding to VEGFR2 in ELISA ([5]; 100-1000 fold excess): blocked
Reduction in VEGF binding to VEGFR2 ([5]; 100 fold molar excess over VEGF): about 74%
VEGF bound to VEGFR2-coated wells, % of the amount bound in the absence of antibody ([5]; 1000-fold molar excess over VEGF (1 nM VEGF)): ~19%
Reduction in VEGF binding to VEGFR2 ([5]; 1000 fold molar excess over VEGF): about 81%
Blocks VEGF from binding to VEGFR2 ([5]; Table 5): Yes
Blocks VEGF from binding to VEGFR1 (VEGFR1 (Flt-1/Fc)): No
Final tumor volume, NCI-H358 NSCLC (NCI-H358 NSCLC): approximately 150 mm^3
Final tumor volume, A673 rhabdomyosarcoma (A673 rhabdomyosarcoma [6]): approximately 150 mm^3
Mean tumor volume after approximately 14 wk of treatment (NCI-H358 NSCLC tumors; FIG. 5A study, 100 μg, at start 480 mm^3 (2C3), 428 mm^3 (3E7)): 84 mm^3
Decrease in mean tumor volume (NCI-H358 NSCLC tumors; FIG. 5A study, approximately 14 wk): approximately 80%
Mean tumor weight at the end of the study (NCI-H358 NSCLC tumors; FIG. 5A study, day 116): 0.054 g
Mean tumor volume at the end of the study, % of the initial mean tumor volume (NCI-H358 NSCLC tumors; established tumors 300-450 mm^3, 50-100 μg i.p. every 3-5 days, approximately 10 weeks of treatment): 30%
Effect on growth of HT1080 tumors (HT1080 fibrosarcoma): arrested the growth of the tumors
Effect on growth of established A673 tumors (A673 rhabdomyosarcoma [7]): significantly slowed the growth
Effect on growth of established LS174T tumors [8]: significantly slowed the growth

2C3-GUS [Clone 2C3-GUS]
Enzymatic activity of GUS (GUS enzymatic activity): retained enzymatic activity
t 1/2β, clearance from the blood [9]: about 25 hours
t½α, clearance from the blood [9]: about 6 hours
Localization in tumor after i.v. injection [10]: specifically localized to tumor vasculature and surrounding tumor stroma
Staining of normal tissues after i.v. injection [10]: unstained
